Source: publication PMC5345230, “Disruption of TWIST1-RELA binding by mutation and competitive inhibition to validate the TWIST1 WR domain as a therapeutic target” (BMC Cancer, 2017)
Changes are numbered by the printed parent chain. Names may count otherwise.

B1: TWIST1 E193A (natural protein, human, UniProt Q15672 1-202, looked up)
chain: MMQDVSSSPVSPADDSLSNSEEEPDRQQPPSGKRGGRKRRSSRRSAGGGAGPGGAAGGGVGGGDEPGSPAQGKRGKKSAGCGGGGGAGGGGGSSSGGGSPQSYEELQTQRVMANVRERQRTQSLNEAFAALRKIIPTLPSDKLSKIQTLKLAARYIDFLYQVLQSDELDSKMASCSYVAHERLSYAFSVWRMAGAWSMSASH
B2: TWIST1 R191A (natural protein, human, UniProt Q15672 1-202, looked up)
chain: B1 chain with R191A, A193E
B3: TWIST1 W190A (natural protein, human, UniProt Q15672 1-202, looked up)
chain: B1 chain with W190A, A193E

Biological target: RELA (wild type), NF-kB subunit p65 (UniProt Q04206 1-551)
Test: cell-based or functional assay

RELA (wild type), NF-kB subunit p65, sequence (Q04206 whole entry): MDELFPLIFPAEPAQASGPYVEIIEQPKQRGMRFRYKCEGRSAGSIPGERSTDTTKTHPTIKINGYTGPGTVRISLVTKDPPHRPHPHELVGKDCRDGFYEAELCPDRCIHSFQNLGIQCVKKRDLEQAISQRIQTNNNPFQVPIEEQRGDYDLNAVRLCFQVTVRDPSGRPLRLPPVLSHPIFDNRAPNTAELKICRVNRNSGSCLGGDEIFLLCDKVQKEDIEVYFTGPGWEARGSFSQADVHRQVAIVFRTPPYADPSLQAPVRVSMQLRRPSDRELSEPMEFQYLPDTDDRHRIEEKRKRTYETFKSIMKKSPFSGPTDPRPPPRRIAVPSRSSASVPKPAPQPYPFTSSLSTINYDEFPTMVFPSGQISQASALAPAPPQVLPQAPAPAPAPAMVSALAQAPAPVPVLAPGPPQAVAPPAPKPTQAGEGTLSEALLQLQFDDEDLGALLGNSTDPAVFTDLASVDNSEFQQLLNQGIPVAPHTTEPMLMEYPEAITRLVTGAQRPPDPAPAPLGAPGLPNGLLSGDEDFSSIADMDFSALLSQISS

Row | IL-8 promoter driven firefly luciferase (dual luciferase assay) in Ovcar4 cells, reduction against wild type TWIST1 [%] | Binder
1 | 50 | B1
2 | 50 | B2
3 | 50 | B3
